Test results as given in IntAct's records for PubMed 10357812.

B1: Synaptojanin-2 (Rattus norvegicus (Rat)), O55207-3 (parent)
chain: MALSKGLRLLARLDPTGPSSVLLEARGRGDCLLFEAGAVATLAPEEKEVIKGLYGKPTDAYGCLGELSLKSGGVPLSFLVLVTGCTSVGRIPDAEIYKITGTEFYPLQEEAKEEDRLPALKKILSSGVFYFAWPNDGACFDLTIRAQKQGDDCSEWGTSFFWNQLLHVPLRQHQVNCHDWLLKVICGVVTIRTVYASHKQAKACLISRISCERAGARFLTRGVNDDGHVSNFVETEQAIYMDDGVSSFVQIRGSVPLFWEQPGLQVGSHHLRLHRGLEANAPAFERHMVLLKEQYGQQVVVNLLGSRGGEEVLNRAFKKLLWASCHAGDTPMINFDFHQFAKGRKLEKLENLLRPQLKLHWDDFGVFAKGENVSPRFQKGTLRMNCLDCLDRTNTVQCFIALEVLHLQLESLGLNSKPITDRFVESFKAMWSLNGHGLSKVFTGSRALEGKAKVGKLKDGARSMSRTIQSNFFDGVKQEAIKLLLVGDVYNEESTDKGRMLLDNTALLGLGSNKQNSLSGMLDGKATPRILKAMTERQSEFTNFKRIQIAMGTWNVNGGKQFRSNLLGTTELTDWLLDAPQLSGAVDSQDDGGPADIFAVGFEEMVELSAGNIVNASTTNRKMWGEQLQKAISRSHRYILLTSAQLVGVCLYIFVRPYHVPFIRDVAIDTVKTGMGGKAGNKGAVGIRFQFHSTSFCFICSHLTAGQSQVKERNEDYREITHKLSFPSGRNIFSHDYVFWCGDFNYRIDLTYEEVFYFVKRQDWKKLMEFDQLQLQKSSGKIFKDFHEGTINFGPTYKYDVGSAAYDTSDKCRTPAWTDRVLWWRKKHPYDKTAGELNLLDSDLDGDANIRHTWSPGTLKYYGRAELQASDHRPVLAIVEVEVQEVDVGARERVFQEVSSVQGPLDATVIVNLQSPTLEERNEFPEDLRTELMQTLGNYGTIILVRINQGQMLVTFADSHSALSVLDVDGMKVKGRAVKIRPKTKDWLEGLREELIRKRDSMAPVSPTANSCLLEENFDFTSLDYESEGDVLEDDEDYLADEFGQPVVSDSELGGDDSSDTMSASTPASKSPALAKKKQHPTYKDDADLMTLKLELEVAGNFRHRSPSRSLSVPNRPRPPHPPQRPPPPTGLMVKKSASDASISSGTHGQYSILQTAKLLPGAPQQPPKARTGISKPYNVKQIKTTNAQEAEAAIRCLLEAGGGVPESAPGATPLRNQGSSKPEASLGPPVLPRRPVPRVPTMKKPTLRRTGKIVFCSSSQASQPCSLLQRHEFVRTVAAQRLTPVDASGSSV
partner: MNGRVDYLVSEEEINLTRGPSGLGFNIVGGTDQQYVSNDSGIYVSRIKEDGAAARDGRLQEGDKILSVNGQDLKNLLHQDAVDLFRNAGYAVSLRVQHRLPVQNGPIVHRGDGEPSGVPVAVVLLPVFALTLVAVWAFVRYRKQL

Variants of: B1
Conditions: with syj2b_rat Synj2bp

Effect of a mutation on the interaction, disrupting interaction:
G1290A
S1291A
V1293A
